Laboratory results reported in patent US20230357354A1 (ENCEFA, published 2023).

Legend:
[1] = target: human CD38 on cells (Daudi cells; CD38^+ Jurkat T cells) (human, UniProt P28907 1-300); assay: cell-based or functional assay
[2] = target: T1, recombinant human CD38 (Acrobio, ref CD8-H5224) (human, UniProt P28907 43-300); assay: SPR, Biacore 3000, CM5 chip, recombinant human CD38
T1 construct: Bought protein used in Biacore
Protocol: Binding affinity was measured and reported by the equilibrium dissociation constant (KD). Recombinant human CD38 (Acrobio, ref CD8-H5224) dissolved in milliQ water was used.

| Binder | EC50, glucose uptake (2-NBDG fluorescence), human Daudi cells [1] | Kd [2] |
| --- | --- | --- |
| NSRDQNFVILEFPVE [CD31 peptide NSRDQNFVILEFPVE (linear)] | ~13 nM | 2.3 nM |
| CRDQNFVILEFPVEEQC [looped peptide CRDQNFVILEFPVEEQC (SEQ ID NO: 9), free peptide] | ~0.1 nM | – |
